The target of the assay is PPI peptide (…) in complex with pMHC-CD8wt monomer (HLA-A02:01). The assay is described as follows: micropipette adhesion frequency assay; biotinylated pMHC monomers on streptavidin-coated biotinylated RBCs brought into contact with single CTL clones; adhesion frequency against contact time, equilibrium at 4 s; 2D affinity AcKa in μm^4; room temperature (main figures) and 37°C (supplement).

“CD8 co-receptor on human HCV-specific CTL clones (from UniProt P01732 22-235; P10966 22-210)” gave a 2D affinity (AcKa) of 1e-06 μm^4.

These data come from paper PMC5532383.
